Test results published in patent publication US20040072256A1.

Key:
[1] = target: hemagglutinin-neuraminidase (HN) glycoprotein of Sendai virus (Sendai virus); test: cell-based or functional assay
[2] = target: hemagglutinin (HA) of Influenza virus A/PR/8/34 (H1N1) (Influenza virus A/PR/8/34 (H1N1)) (UniProt P03452); test: flow cytometry on IV-infected 1106mel cells, no mAb
[3] = target: hemagglutinin-neuraminidase (HN) glycoprotein of Sendai virus (Sendai virus); test: flow cytometry on SV-infected 721.221 cells pre-incubated with competitor TC-9C1 (anti-HN)
[4] = target: hemagglutinin (HA) of Influenza virus A/PR/8/34 (H1N1) (Influenza virus A/PR/8/34 (H1N1)) (UniProt P03452); test: cell-based or functional assay
[5] = target: hemagglutinin-neuraminidase (HN) glycoprotein of Sendai virus (Sendai virus); test: flow cytometry on SV-infected 721.221 cells pre-incubated with competitor TC-9A1 (anti-F)
[6] = target: hemagglutinin (HA) of Influenza virus A/PR/8/34 (H1N1) (Influenza virus A/PR/8/34 (H1N1)) (UniProt P03452); test: flow cytometry on IV-infected 1106mel cells pre-incubated with competitor H17-L2 (anti-HA)
[7] = target: hemagglutinin-neuraminidase (HN) glycoprotein of Sendai virus (Sendai virus); test: flow cytometry, 293T cells transfected with Sendai HN cDNA vs mock
[8] = target: hemagglutinin (HA) of Influenza virus A/PR/8/34 (H1N1) (Influenza virus A/PR/8/34 (H1N1)) (UniProt P03452); test: flow cytometry, IV-infected vs uninfected 1106mel cells
[9] = target: hemagglutinin (HA) of Influenza virus A/PR/8/34 (H1N1) (Influenza virus A/PR/8/34 (H1N1)) (UniProt P03452); test: flow cytometry on IV-infected 1106mel cells pre-incubated with competitor H28-E23 (anti-HA)
[10] = target: hemagglutinin-neuraminidase (HN) glycoprotein of Sendai virus (Sendai virus); test: flow cytometry, SV-infected vs uninfected 721.221 cells
[11] = target: hemagglutinin-neuraminidase (HN) glycoprotein of Sendai virus (Sendai virus); test: flow cytometry on SV-infected 721.221 cells, no mAb
[12] = target: hemagglutinin (HA) of Influenza virus A/PR/8/34 (H1N1) (Influenza virus A/PR/8/34 (H1N1)) (UniProt P03452); test: flow cytometry on IV-infected 1106mel cells pre-incubated with NA2-1C1 (anti-NA, blocks neuraminidase activity)
[13] = target: hemagglutinin-neuraminidase (HN) glycoprotein of Sendai virus (Sendai virus); test: flow cytometry on SV-infected 721.221 cells pre-incubated with competitor TC-1D6 (anti-HN)
[14] = target: hemagglutinin-neuraminidase (HN) glycoprotein of Sendai virus (Sendai virus); test: flow cytometry on SV-infected 721.221 cells pre-incubated with competitor 135.7 (anti-HN)

With “NKp46 receptor on NK cells (from UniProt O76036 22-304)” the lysis of HN-transfected 293T cells by NK line NK-GAL (35S-release) [1] was greater than 4 fold.

In the case of NKp46-Ig fusion protein (Fc fusion), the MFI NKp46-Ig binding [2] is reported as 441 MFI, the MFI NKp46-Ig binding [3] is reported as 18 MFI and the hemagglutination inhibition (IV-mediated agglutination of sheep erythrocytes) [4] is reported as 2 µM. It also gave an MFI NKp46-Ig binding [5] of 63 MFI, an MFI NKp46-Ig binding [6] of 145 MFI and a fold increase in staining on HN transfection [7] of 2 fold. For the same substance, the fold increase in binding on IV infection [8] was 4 fold, the MFI NKp46-Ig binding [9] was 63 MFI and the fold increase in staining on SV infection [10] was 10 fold. For the same substance, the MFI NKp46-Ig binding [11] was 74 MFI, the MFI NKp46-Ig binding [12] was 980 MFI and the MFI NKp46-Ig binding [13] was 14 MFI. It also gave an MFI NKp46-Ig binding [14] of 22 MFI.
